Laboratory results from the supplement of paper PMC10266784.

B1: library; numbered along this chain (parent)
chain: MAAAAAAAAEQQSSNGPVKKSMREKAVERRSVNKEHNSNFKAGYIPIDEDRLHKTGLRGRKGNLAICVIILLFILAVINLIITLVIWAVIRIGPNGCDSMEFHESGLLRFKQVSDMGVIHPLYKSTVGGRRNENLVITGNNQPIVFQQGTTKLSVENNKTSITSDIGMQFFDPRTQNILFSTDYETHEFHLPSGVKSLNVQKASTERITSNATSDLNIKVDGRAIVRGNEGVFIMGKTIEFHMGGNMELKAENSIILNGSVMVSTTRLPSSSSGDQLGSGDWVRYKLCMCADGTLFKVQVTSQNMGCQISDNPCGNTH

Variants of: B1
Test: SGCB cell-surface expression functional score (HA stain, bin4 vs bin1, normalised to synonymous) (log10 ratio); higher = more cell-surface SGCB (functional)
Procedure: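 Deep mutational scan of full-length human SGCB (YFP-SGCB-HA, NNN codon sublibraries A-F) delivered by lentivirus at low MOI into ADG-HEK293 cells stably expressing SGCA, SGCD and SGCG. YFP-positive cells were stained for surface HA on unpermeabilized cells and FACS-sorted into bins. The functional score is log10(frequency in high bin 4 / frequency in low bin 1), normalised per chunk so that synonymous variants have mean 0 and SD 0.5. Scores are the median over codons and over duplicate biological replicates; scores below -0.5 are called non-functional. Scale: negative means deleterious.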

Row | Variant | SGCB cell-surface expression functional score (log10)
1 | MMAAAAAAAEQQSSNGPVKKSMREKAVERRSVNKEHNSNFKAGYIPIDEDRLHKTGLRGRKGNLAICVIILLFILAVINLIITLVIWAVIRIGPNGCDSMEFHESGLLRFKQVSDMGVIHPLYKSTVGGRRNENLVITGNNQPIVFQQGTTKLSVENNKTSITSDIGMQFFDPRTQNILFSTDYETHEFHLPSGVKSLNVQKASTERITSNATSDLNIKVDGRAIVRGNEGVFIMGKTIEFHMGGNMELKAENSIILNGSVMVSTTRLPSSSSGDQLGSGDWVRYKLCMCADGTLFKVQVTSQNMGCQISDNPCGNTH [A2M] | 0.02
2 | MLAAAAAAAEQQSSNGPVKKSMREKAVERRSVNKEHNSNFKAGYIPIDEDRLHKTGLRGRKGNLAICVIILLFILAVINLIITLVIWAVIRIGPNGCDSMEFHESGLLRFKQVSDMGVIHPLYKSTVGGRRNENLVITGNNQPIVFQQGTTKLSVENNKTSITSDIGMQFFDPRTQNILFSTDYETHEFHLPSGVKSLNVQKASTERITSNATSDLNIKVDGRAIVRGNEGVFIMGKTIEFHMGGNMELKAENSIILNGSVMVSTTRLPSSSSGDQLGSGDWVRYKLCMCADGTLFKVQVTSQNMGCQISDNPCGNTH [A2L] | 0.2
3 | MCAAAAAAAEQQSSNGPVKKSMREKAVERRSVNKEHNSNFKAGYIPIDEDRLHKTGLRGRKGNLAICVIILLFILAVINLIITLVIWAVIRIGPNGCDSMEFHESGLLRFKQVSDMGVIHPLYKSTVGGRRNENLVITGNNQPIVFQQGTTKLSVENNKTSITSDIGMQFFDPRTQNILFSTDYETHEFHLPSGVKSLNVQKASTERITSNATSDLNIKVDGRAIVRGNEGVFIMGKTIEFHMGGNMELKAENSIILNGSVMVSTTRLPSSSSGDQLGSGDWVRYKLCMCADGTLFKVQVTSQNMGCQISDNPCGNTH [A2C] | 0.1
4 | MPAAAAAAAEQQSSNGPVKKSMREKAVERRSVNKEHNSNFKAGYIPIDEDRLHKTGLRGRKGNLAICVIILLFILAVINLIITLVIWAVIRIGPNGCDSMEFHESGLLRFKQVSDMGVIHPLYKSTVGGRRNENLVITGNNQPIVFQQGTTKLSVENNKTSITSDIGMQFFDPRTQNILFSTDYETHEFHLPSGVKSLNVQKASTERITSNATSDLNIKVDGRAIVRGNEGVFIMGKTIEFHMGGNMELKAENSIILNGSVMVSTTRLPSSSSGDQLGSGDWVRYKLCMCADGTLFKVQVTSQNMGCQISDNPCGNTH [A2P] | 0.24
5 | MSAAAAAAAEQQSSNGPVKKSMREKAVERRSVNKEHNSNFKAGYIPIDEDRLHKTGLRGRKGNLAICVIILLFILAVINLIITLVIWAVIRIGPNGCDSMEFHESGLLRFKQVSDMGVIHPLYKSTVGGRRNENLVITGNNQPIVFQQGTTKLSVENNKTSITSDIGMQFFDPRTQNILFSTDYETHEFHLPSGVKSLNVQKASTERITSNATSDLNIKVDGRAIVRGNEGVFIMGKTIEFHMGGNMELKAENSIILNGSVMVSTTRLPSSSSGDQLGSGDWVRYKLCMCADGTLFKVQVTSQNMGCQISDNPCGNTH [A2S] | 0.14
6 | MWAAAAAAAEQQSSNGPVKKSMREKAVERRSVNKEHNSNFKAGYIPIDEDRLHKTGLRGRKGNLAICVIILLFILAVINLIITLVIWAVIRIGPNGCDSMEFHESGLLRFKQVSDMGVIHPLYKSTVGGRRNENLVITGNNQPIVFQQGTTKLSVENNKTSITSDIGMQFFDPRTQNILFSTDYETHEFHLPSGVKSLNVQKASTERITSNATSDLNIKVDGRAIVRGNEGVFIMGKTIEFHMGGNMELKAENSIILNGSVMVSTTRLPSSSSGDQLGSGDWVRYKLCMCADGTLFKVQVTSQNMGCQISDNPCGNTH [A2W] | -0.4
7 | MTAAAAAAAEQQSSNGPVKKSMREKAVERRSVNKEHNSNFKAGYIPIDEDRLHKTGLRGRKGNLAICVIILLFILAVINLIITLVIWAVIRIGPNGCDSMEFHESGLLRFKQVSDMGVIHPLYKSTVGGRRNENLVITGNNQPIVFQQGTTKLSVENNKTSITSDIGMQFFDPRTQNILFSTDYETHEFHLPSGVKSLNVQKASTERITSNATSDLNIKVDGRAIVRGNEGVFIMGKTIEFHMGGNMELKAENSIILNGSVMVSTTRLPSSSSGDQLGSGDWVRYKLCMCADGTLFKVQVTSQNMGCQISDNPCGNTH [A2T] | 0.11
8 | MIAAAAAAAEQQSSNGPVKKSMREKAVERRSVNKEHNSNFKAGYIPIDEDRLHKTGLRGRKGNLAICVIILLFILAVINLIITLVIWAVIRIGPNGCDSMEFHESGLLRFKQVSDMGVIHPLYKSTVGGRRNENLVITGNNQPIVFQQGTTKLSVENNKTSITSDIGMQFFDPRTQNILFSTDYETHEFHLPSGVKSLNVQKASTERITSNATSDLNIKVDGRAIVRGNEGVFIMGKTIEFHMGGNMELKAENSIILNGSVMVSTTRLPSSSSGDQLGSGDWVRYKLCMCADGTLFKVQVTSQNMGCQISDNPCGNTH [A2I] | 0.13
9 | MVAAAAAAAEQQSSNGPVKKSMREKAVERRSVNKEHNSNFKAGYIPIDEDRLHKTGLRGRKGNLAICVIILLFILAVINLIITLVIWAVIRIGPNGCDSMEFHESGLLRFKQVSDMGVIHPLYKSTVGGRRNENLVITGNNQPIVFQQGTTKLSVENNKTSITSDIGMQFFDPRTQNILFSTDYETHEFHLPSGVKSLNVQKASTERITSNATSDLNIKVDGRAIVRGNEGVFIMGKTIEFHMGGNMELKAENSIILNGSVMVSTTRLPSSSSGDQLGSGDWVRYKLCMCADGTLFKVQVTSQNMGCQISDNPCGNTH [A2V] | 0.12
10 | MNAAAAAAAEQQSSNGPVKKSMREKAVERRSVNKEHNSNFKAGYIPIDEDRLHKTGLRGRKGNLAICVIILLFILAVINLIITLVIWAVIRIGPNGCDSMEFHESGLLRFKQVSDMGVIHPLYKSTVGGRRNENLVITGNNQPIVFQQGTTKLSVENNKTSITSDIGMQFFDPRTQNILFSTDYETHEFHLPSGVKSLNVQKASTERITSNATSDLNIKVDGRAIVRGNEGVFIMGKTIEFHMGGNMELKAENSIILNGSVMVSTTRLPSSSSGDQLGSGDWVRYKLCMCADGTLFKVQVTSQNMGCQISDNPCGNTH [A2N] | 0.38
